{
  "source": "patent US20250281653A1",
  "about": "“METHODS FOR TREATING PROSTATE CANCER WITH RADIOPHARMACEUTICALS” (ARTBIO, Inc., priority 2024, published 2025)",
  "key": {"[1]": {"experiment": "Baseline F18-PSMA-PET/CT: normal tissue evaluation at screening", "assay_type": "in vivo, human", "settings": "individual participants", "description": "Participants underwent a standard of care diagnostic ^18F-PSMA-PET/CT at baseline (i,e, within six weeks prior to administration of ^212Pb-Compound 1).\nPSMA-PET/CT was conducted using the radiotracer ^18F-PSMA-1007: dose 2.5 MBq/kg (minimum 200 MBq, maximum 300 MBq) with PET acquisition performed approximately 120 minutes post-injection.\nEach patient received a baseline PSMA-PET/CT evaluation utilizing an F18-PSMA-PET tracer during the screening period (i.e. prior to ^212Pb-Compound 1 administration).\nThe pattern of PSMA-PET CT tracer uptake in normal organs is within expectations in each case; with notable uptake in the salivary glands (SUVmax range 20.06-30.7), kidneys (SUVmax range 18.7-35.2) and liver (SUVmax range 14.5-25.5)."}, "[2]": {"settings": "in vivo; cited from earlier work"}, "[3]": {"parameters": "species or system human", "settings": "in vivo", "description": "(§1) Study drug administration: a single injection of 10 MBq for ^212Pb-Compound 1 was administered for each participant. Administration was by slow bolus IV injection via a 3-way adapter coupled to a conventional isotonic saline solution. • The timepoint of injection of ^212Pb-Compound 1 was defined as Day 0, 0 hours. […] Full blood and plasma were measured separately to investigate ligand in vivo stability. […]\n(§2) • Non-invasive gamma camera imaging with both planar gamma imaging (whole body scintigraphy) and SPECT/CT was performed at 2 timepoints following injection of ^212Pb-Compound 1: • 1-3 hours and 16-24 hours • The planar gamma camera imaging was acquired immediately before the SEPCT/CT imaging • Performed on a Siemens Symbia Intevo Bold hybrid scanner using a medium energy low penetration (MELP) or high energy (HE) collimator. • The same scanner was used for all acquisitions of all patients in the study. • Scanner room background radiation was measured 0.5 m from the SPECT/CT scanner table, over a time period of one minute, before the participant entered the scanner room. […]"}, "[4]": {"parameters": "species or system human", "settings": "in vivo", "description": "as §1, §2", "remark": "listed apart in the source"}, "[5]": {"parameters": "species or system human", "settings": "in vivo", "description": "The sample size was three participants.\nStudy drug administration: a single injection of 10 MBq for ^212Pb-Compound 1 was administered for each participant. Administration was by slow bolus IV injection via a 3-way adapter coupled to a conventional isotonic saline solution. • The timepoint of injection of ^212Pb-Compound 1 was defined as Day 0, 0 hours. Imaging, whole-body probe and blood assessments of clearance were performed at the following timepoints: • Gamma camera imaging (both planar and SPECT/CT) was scheduled 1-3 hours and 16-24 hours post injection. • Clearance was assessed with blood sampling and whole-body probe measurements at the following timepoints: 15 min after dose (+/−15 min window), 1 h after dose (+1 h window), 4 h after dose (+2 h window), 16 h after dose (+8 h window). Full blood and plasma were measured separately to investigate ligand in vivo stability. Follow-up: Patients were followed-up for safety and tolerability for 28 days post-administration of ^212Pb-Compound 1, with visits on Day 14 and Day 28. Adverse events were reported per CTCAE v5 from time of informed consent until end of follow-up. Patients were followed-up for efficacy biomarkers (PSA, ALP) for 28 days post-administration of ^212Pb-Compound 1.\nAll 3 patients consented and administered ^212Pb-Compound 1 subsequently completed the planned safety follow up period (no withdrawals from the clinical trial).", "remark": "listed apart in the source"}},
  "note": "Values joined by “and” are separate entries in the source; they are usually repeats but may differ in a detail not shown here. Equal entries are not always repeated.",
  "data": [
    {"smiles": "O=C(O)CC[C@H](NC(=O)N[C@@H](CCCCNC(=O)[C@H](Cc1ccc2ccccc2c1)NC(=O)c1ccc(CNC(=O)[C@H](CCC(=O)O)NC(=O)[C@H](CCC(=O)O)NC(=O)c2ccc([18F])nc2)cc1)C(=O)O)C(=O)O", "note": "[Compound F18-PSMA-PET]", "values": [
      {"measurement": "SUV max, Bladder, including contents", "setting": "[1]", "result": "8.3 and 2.8 and 3"},
      {"measurement": "SUV max, Blood pool", "setting": "[1]", "result": "1.2 and 0.8 and 1.3"},
      {"measurement": "SUV max, Bone Marrow", "setting": "[1]", "result": "1.8 and 1.3 and 1"},
      {"measurement": "SUV max, Kidneys", "setting": "[1]", "result": "35.2 and 26.8 and 18.7"},
      {"measurement": "SUV max, Liver", "setting": "[1]", "result": "14.5 and 25.5 and 14.8"},
      {"measurement": "SUV max, Salivary gland", "setting": "[1]", "result": "30.7 (2×) and 20.6"},
      {"measurement": "SUV max, Spleen", "setting": "[1]", "result": "16.2 and 7.2 and 15.3"},
      {"measurement": "SUV mean, Bladder, including contents", "setting": "[1]", "result": "6.2 and 2.3 (2×)"},
      {"measurement": "SUV mean, Blood pool", "setting": "[1]", "result": "0.7 and 0.6 and 1.1"},
      {"measurement": "SUV mean, Bone Marrow", "setting": "[1]", "result": "1.3 and 0.9 and 0.7"},
      {"measurement": "SUV mean, Kidneys", "setting": "[1]", "result": "19.2 and 16.1 and 11.4"},
      {"measurement": "SUV mean, Liver", "setting": "[1]", "result": "11.3 and 21.8 and 12.5"},
      {"measurement": "SUV mean, Salivary gland", "setting": "[1]", "result": "18.5 and 13 and 19.8"},
      {"measurement": "SUV mean, Spleen", "setting": "[1]", "result": "12.6 and 6.1 and 13.7"},
      {"measurement": "SUV max, Kidneys", "setting": "[1]; listed as PSMA-PET CT tracer", "result": "18.7 to 35.2"},
      {"measurement": "SUV max, Liver", "setting": "[1]; listed as PSMA-PET CT tracer", "result": "14.5 to 25.5"}
    ]},
    {"smiles": "O=C([O-])CN1CCN(CC(=O)[O-])CCN(CC(=O)NCC2CCC(C(=O)N[C@@H](Cc3ccc4ccccc4c3)C(=O)NCCCC[C@H](NC(=O)N[C@@H](CCC(=O)O)C(=O)O)C(=O)O)CC2)CCN(CC(=O)[O-])CC1.[177Lu+3]", "note": "(stereo partly shown) [^177Lu-PSMA-617, lutetium Lu 177 vipivotide tetraxetan]", "values": [
      {"measurement": "Dry mouth (i.e., xerostomia), proportion of population", "setting": "[2]", "result": 38.8, "unit": "%"}
    ]},
    {"smiles": "NC(=O)CN1CCN(CC(N)=O)CCN(CC(N)=O)C(Cc2ccc(NC(=S)NC[C@H]3CC[C@H](C(=O)N[C@@H](Cc4ccc5ccccc5c4)C(=O)NCCCC[C@H](NC(=O)N[C@@H](CCC(=O)O)C(=O)O)C(=O)O)CC3)cc2)CN(CC(N)=O)CC1", "note": "(stereo partly shown) [^212Pb-Compound 1, metal not drawn]", "values": [
      {"measurement": "Participants with ^212Pb-Compound 1 uptake by the liver", "setting": "[3]", "result": "one participant at the 1 hr time point"},
      {"measurement": "^212Pb-Compound 1 uptake in retrocaval lymph node metastasis (most PSMA-avid lesion)", "setting": "[4]", "result": "uptake at the 1 hour time point for one lesion"},
      {"measurement": "Adverse reactions, SAEs, SUSARs or deaths", "setting": "[5]", "result": "No adverse reactions, serious adverse events (SAEs), suspected unexpected serious adverse events (SUSARs) or deaths were reported"},
      {"measurement": "CTCAE grade of the TEAE abdominal pain", "setting": "[5]", "result": 2},
      {"measurement": "Differences or trends in hematology, biochemistry and urinalysis from baseline (incl. ALT, AST, bilirubin, albumin, egfr, creatinine)", "setting": "[5]", "result": "no clinically significant differences or trends"},
      {"measurement": "ECOG performance score at all visits evaluated", "setting": "[5]", "result": 1},
      {"measurement": "ECOG performance status, change from baseline to end of study visit", "setting": "[5]", "result": "remained unchanged"},
      {"measurement": "Individual measurements of hematological and clinical chemistry parameters", "setting": "[5]", "result": "within their normal reference ranges"},
      {"measurement": "Investigator-assessed relationship of all TEAEs to ^212Pb-Compound 1", "setting": "[5]", "result": "probably unrelated"},
      {"measurement": "Number (%) of Participants with TEAE: Abdominal pain", "setting": "[5]", "result": "1 (33)"},
      {"measurement": "Number (%) of Participants with TEAE: Constipation", "setting": "[5]", "result": "1 (33)"},
      {"measurement": "Number (%) of Participants with TEAE: Erythema", "setting": "[5]", "result": "1 (33)"},
      {"measurement": "Number (%) of Participants with TEAE: General disorders and administration site conditions", "setting": "[5]", "result": "1 (33)"},
      {"measurement": "Number (%) of Participants with TEAE: Injury, poisoning and procedural complications", "setting": "[5]", "result": "1 (33)"},
      {"measurement": "Number (%) of Participants with TEAE: Localized oedema", "setting": "[5]", "result": "1 (33)"},
      {"measurement": "Number (%) of Participants with TEAE: Skin and subcutaneous tissue disorders", "setting": "[5]", "result": "1 (33)"},
      {"measurement": "Number (%) of Participants with TEAE: Tooth fracture", "setting": "[5]", "result": "1 (33)"},
      {"measurement": "Number (%) of Participants with TEAE: Vomiting", "setting": "[5]", "result": "1 (33)"},
      {"measurement": "Performance status (ECOG)", "setting": "[5]", "result": 1},
      {"measurement": "Risk of xerostomia inferred from absent salivary gland uptake", "setting": "[5]", "result": "lower risk of xerostomia"}
    ]}
  ]
}
